Patent US20220323599A1 (CELGENE, published 2022)
Where two headings read alike, the source gives them in different places.

What was measured:
[1] = biological target: T1, human BCMA on cells (endogenous on multiple myeloma cell lines; stably transfected 293T-hBCMA) (human, UniProt Q02223 1-184); assay: cell-based or functional assay
T1 sequence: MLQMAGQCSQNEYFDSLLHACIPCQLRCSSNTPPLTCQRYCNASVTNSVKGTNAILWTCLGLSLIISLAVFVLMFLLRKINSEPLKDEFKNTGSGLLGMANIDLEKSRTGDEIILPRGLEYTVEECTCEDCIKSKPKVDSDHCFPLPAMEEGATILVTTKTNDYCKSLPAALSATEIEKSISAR

[2] = biological target: T2, cynomolgus BCMA on stably transfected 293T cells (cynomolgus monkey, UniProt Q02223 1-184 (human entry)); assay: FACS cell binding, 293T-cynoBCMA cells
T2 sequence (Q02223 other isoform, or with tags, fused parts or gaps): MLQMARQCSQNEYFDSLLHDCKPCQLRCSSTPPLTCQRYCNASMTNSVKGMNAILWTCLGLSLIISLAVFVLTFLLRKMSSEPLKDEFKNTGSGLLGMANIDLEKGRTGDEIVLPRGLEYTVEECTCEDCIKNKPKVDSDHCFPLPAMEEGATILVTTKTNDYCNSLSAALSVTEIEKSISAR

[3] = biological target: T1, human BCMA on cells (endogenous on …); assay: FACS cell binding, NCI-H929 (BCMA+) cells
[4] = biological target: T3, cyno BCMA-Fc (custom protein production) (cynomolgus monkey, UniProt Q02223 1-54 (human entry)); assay: SPR (Biacore), antibody captured on anti-Fab or anti-Fc surface, cyno BCMA-Fc as analyte, 25 C
T3 construct: also called cynomolgus BCMA-Fc; not shown: Fc part of the fusion protein, not described

[5] = biological target: T4, human BCMA-Fc (R&D Systems) (human, UniProt Q02223 1-54); assay: SPR (Biacore), antibody captured on anti-Fab or anti-Fc surface, human BCMA-Fc as analyte, 25 C
T4 construct: Bought protein; not shown: Fc part of the bought fusion protein, not described
T4 sequence: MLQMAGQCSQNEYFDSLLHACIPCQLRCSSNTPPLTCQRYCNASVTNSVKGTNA

[6] = biological target: T1, human BCMA on cells (endogenous on …); assay: cell-based or functional assay; remark: listed apart in the source
[7] = biological target: T1, human BCMA on cells (endogenous on …); assay: cell-based or functional assay; remark: listed apart in the source
[8] = biological target: T1, human BCMA on cells (endogenous on …); assay: cell-based or functional assay; remark: listed apart in the source
[9] = biological target: T1, human BCMA on cells (endogenous on …); assay: cell-based or functional assay; remark: listed apart in the source
[10] = biological target: T1, human BCMA on cells (endogenous on …); assay: flow cytometry, ARP-1 cells
[11] = biological target: T1, human BCMA on cells (endogenous on …); assay: flow cytometry, MM.1S cells
[12] = biological target: T1, human BCMA on cells (endogenous on …); assay: flow cytometry, OPM-2 cells
[13] = biological target: T1, human BCMA on cells (endogenous on …); assay: flow cytometry, U266B1 cells
[14] = biological target: T1, human BCMA on cells (endogenous on …); assay: flow cytometry, NCI-H929 cells
[15] = biological target: T1, human BCMA on cells (endogenous on …); assay: flow cytometry, RPMI-8226 cells
[16] = biological target: T2, cynomolgus BCMA on stably transfected …; assay: flow cytometry, 293T-cBCMA cells
[17] = biological target: T5, mouse BCMA on transfected HEK293T cells (mouse, UniProt O88472 1-185); assay: flow cytometry on 293T-mBCMA cells
T5 sequence: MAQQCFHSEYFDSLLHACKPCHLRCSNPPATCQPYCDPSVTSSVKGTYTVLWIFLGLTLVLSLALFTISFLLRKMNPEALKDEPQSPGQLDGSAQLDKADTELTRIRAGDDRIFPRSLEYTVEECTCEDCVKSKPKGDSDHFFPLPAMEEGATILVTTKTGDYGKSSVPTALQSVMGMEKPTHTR

[18] = biological target: T6, human TACI on stably transfected 293T cells (human, UniProt O14836 1-293); assay: flow cytometry on 293T cells stably expressing human TACI
T6 construct: whole, on cells; also called TNFRSF13B
T6 sequence (looked up): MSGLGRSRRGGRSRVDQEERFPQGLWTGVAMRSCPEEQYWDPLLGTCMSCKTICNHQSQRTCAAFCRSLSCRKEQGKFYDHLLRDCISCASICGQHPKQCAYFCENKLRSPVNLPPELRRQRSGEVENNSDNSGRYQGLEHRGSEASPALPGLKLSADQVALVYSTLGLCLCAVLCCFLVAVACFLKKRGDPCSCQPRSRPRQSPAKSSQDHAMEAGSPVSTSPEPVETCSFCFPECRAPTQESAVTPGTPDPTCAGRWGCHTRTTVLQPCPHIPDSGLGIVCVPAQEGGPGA

[19] = biological target: T7, human BAFF-R on stably transfected 293T cells (human, UniProt Q96RJ3 1-184); assay: flow cytometry on 293T cells stably expressing human BAFF-R
T7 construct: whole, on cells; also called TNFRSF13C

[20] = biological target: T1, human BCMA on cells (endogenous on …); assay: flow cytometry, 293T-hBCMA cells
[21] = biological target: T1, human BCMA on cells (endogenous on …); assay: flow cytometry, NCI-H929 cells; NCI-H929 cells

B1: 2265-F02 (Fab-HC Variant ID; Antibody 4), cell-free expressed His- and FLAG-tagged IgG1 used in screening (antibody, V domains shown)
VH: EVQLVESGGGLVQPGGSLRLSCAASGFNISAPGIHWVRQAPGKGLEWVGFINPAGGYTDYADSVKGRFTISADTSKNTAYLQMNSLRAEDTAVYYCARDYIRQYWTYVLDYWGQGTLVTVSS
VL: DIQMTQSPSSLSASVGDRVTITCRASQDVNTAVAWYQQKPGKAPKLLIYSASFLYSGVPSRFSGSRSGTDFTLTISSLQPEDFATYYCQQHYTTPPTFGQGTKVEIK
ARP-1, Conjugate M 2° antibody cell killing, EC50 [1]: 1.9 nM
U266B1, Conjugate M 2° antibody cell killing, EC50 [1]: 0.9 nM
Kd [2]: 6.2 nM
Kd [3]: 5.2 nM
Kd [4]: 3.68 nM
koff [4]: 0.00116 s⁻¹
kon [4]: 315000 M⁻¹ s⁻¹
Kd [5]: 0.499 nM
koff [5]: 0.000293 s⁻¹
kon [5]: 587000 M⁻¹ s⁻¹

B2: Conjugate 4: Antibody 2265-F02 conjugated to a non-cleavable maytansine warhead (Conjugate M) at Y180/F404 site (DAR4) (antibody, human IgG1, kappa, V domains shown)
VH: B1 VH
VL: not shown
modifications: p-azidomethyl-phenylalanine (pAMF) at HC-Y180 and HC-F404 by EU numbering (actual positions 186 and 410 as printed), each linked to the non-cleavable maytansinoid drug-linker (Conjugate M); DAR 4
notes: also called Conjugate 4 ADC; BCMA ADC Conjugate 4
cell killing EC50, NCI-H929, Experiment 1 [6]: 0.8 nM
cell killing EC50, NCI-H929, Experiment 2 [6]: 0.8 nM
cell killing EC50, OPM2, Experiment 1 [6]: 1.7 nM
cell killing EC50, OPM2, Experiment 2 [6]: 1.8 nM
cell killing EC50, U266B1, Experiment 1 [6]: 0.8 nM
cell killing EC50, U266B1, Experiment 2 [6]: 0.9 nM
cell killing EC50, NCI-H929, Experiment 1 [7]: 0.7 nM
cell killing EC50, NCI-H929, Experiment 2 [7]: 0.8 nM
cell killing EC50, OPM2, Experiment 1 [7]: 1.7 nM
cell killing EC50, OPM2, Experiment 2 [7]: 2 nM
cell killing EC50, U266B1, Experiment 1 [7]: 0.7 nM
cell killing EC50, U266B1, Experiment 2 [7]: 0.8 nM
cell killing EC50, ARP-1, no competing reagent [8]: 0.7 nM
cell killing EC50, NCI-H929, no competing reagent [8]: 0.9 nM
cell killing EC50, OPM2, no competing reagent [8]: 3.3 nM
cell killing EC50, U266B1, no competing reagent [8]: 0.9 nM
cell killing EC50, ARP-1 [9]: 0.7 nM
cell killing EC50, MM.1S [9]: 0.82 nM
cell killing EC50, NCI-H929 [9]: 0.8 nM
cell killing EC50, OPM-2 [9]: 2.1 nM
cell killing EC50, U266B1 [9]: 0.86 nM
Kd [10]: 1.2 nM
Kd [11]: 1.6 nM
Kd [12]: 2.3 nM
Kd [13]: 3.9 nM
Kd [14]: 2.4 nM
Kd [15]: 1.8 nM
Kd [16]: 2.7 nM
binding result [17]: no binding (tested: titrated from 200 nM)
binding result [18]: no binding (tested: 67 nM)
binding result [19]: no binding (tested: 67 nM)

B3: 2265-F02 Y180/F404 (unconjugated Ab), unconjugated antibody version of Conjugate 4 (antibody, human IgG1, kappa, V domains shown)
VH: B1 VH
VL: not shown
modifications: p-azidomethyl-phenylalanine (pAMF) replacing HC-Y180 and HC-F404 by EU numbering (actual positions 186 and 410 as printed)
notes: Aglycosylated humanized IgG1
Kd [10]: 1 nM
Kd [11]: 0.9 nM
Kd [12]: 1.3 nM
Kd [15]: 1.3 nM
Kd [16]: 2.8 nM
Kd [20]: 2.1 nM
binding result [17]: no binding (tested: titrated from 200 nM)
Kd [21]: 0.9 nM
